Measured values taken from US8008547B2, “Glyphosate-N-acetyltransferase (GAT) genes” (E.I. duPont de Nemours, priority 2000, dated 2011).

B1: SEQ ID NO: 423: GAT polypeptide (protein)
chain: MIEVKPINAEDTYEIRHRILRPNQPLDACKYETDLLGGTFHLGGYYRGKLISIASFHQAEHPELEGQKQYQLRGMATLEGYREQKAGSTLIRHAEELLRKKGADLLWCNARTSASGYYKKLGFSEQGEVYDIPPVGPHILMYKKLT
modifications: 9_15D5
notes: GAT polypeptide
B2: SEQ ID NO: 424: GAT polypeptide (protein)
chain: MIEVKPINAEDTYEIRHRILRPNQPLEACMYETDLLGGTFHLGGYYRGKLVSIASFHQAEHPELEGQKQYQLRGMATLEGYREQKAGSTLIRHAEALLRKKGADLLWCNARTSASGYYKKLGFSEQGEVYDTPPVGPHILMYKKLT
modifications: 9_15D8
notes: GAT polypeptide
B3: SEQ ID NO: 432: GAT polypeptide (protein)
chain: MIEVKPINAEDTYEIRHRILRPNQPLEACKYETDLLGGTLHLGGYYRGKLISIASFHQAEHPELEGQKQYQLRGMATLEGYREQKAGSTLIRHAEELLRKKGADLIWCNARTSASGYYKKLGFSEQGEVYDIPPVGPHILMYKKLT
modifications: 9_4H10
notes: GAT polypeptide
B4: SEQ ID NO: 425: GAT polypeptide (protein)
chain: MIEVKPINAEDTYEIRHRILRPNQPLEACMYETDMLRGAFHLGGYYRGKLISIASFHQAEHPELEGQKQYQLRGMATLEEYHEQKAGSTLIRHAEELLRKKGADLLWCNARTSASGYYKKLGFSEQGEVYNTPPVGPHILMYKKLT
modifications: 9_15H3
notes: GAT polypeptide
B5: SEQ ID NO: 274: GAT polypeptide (protein)
chain: MIEVKPINAEDTYEIRHRILRPNQPLEACKYETDLLGGTFHLGGYYRGKLVSIASFHQAEHPELEGRKQYQLRGMATLEGYREQKAGSTLIRHAEELLRKKGADLLWCNARTSASGYYKKLGFSEQGEVYDIPPTGPHILMYKKLT
modifications: 10_1H3
notes: GAT polypeptide
B6: SEQ ID NO: 273: GAT polypeptide (protein)
chain: MIEVKPINAEDTYEIRHRILRPNQPLEACKYETDLLGGTFHLGGYYRGKLVSIASFHQAEHSELEGQKQYQLRGMATLEEYREQKAGSTLIRHAEELLRKKGADLLWCNARTSASGYYKKLGFSEQGGVYDIPPVGPHILMYKKLT
modifications: 10_18G9
notes: GAT polypeptide
B7: SEQ ID NO: 428: GAT polypeptide (protein)
chain: MIEVKPINAEDTYEIRHRILRPNQPLEACMYETDLLGGTFHLGGYYRGKLISIASFHQAEHPELEGQKQYQLRGMATLEGYREQKAGSTLIRHAEELLRKKGADLLWCNARTSASGYYKKLGFSDQGEVYDIPPVGPHILMYKKLT
modifications: 9_21C8
notes: GAT polypeptide
B8: SEQ ID NO: 434: GAT polypeptide (protein)
chain: MIEVKPITAEDTYEIRHRILRPNQPLEACKYETDLLGGTFHLGGYYRGKLISIASFHQAEHPELEGQKQYQLRGMATLEGYREQKAGSTLIRHAEELLRKKGADLLWCNARTSASGYYKKLGFSEQGEVYDIPPTGPHILMYKKLT
modifications: 9_8H1
notes: GAT polypeptide
B9: SEQ ID NO: 433: GAT polypeptide (protein)
chain: MIEVKPINAEDTYEIRHRILRPNQPLEACMYETDLLGGTFHLGGYYRGKLISIASFNQAEHPELEGQKQYQLRGMATLEGYREQKAGSTLIRHAEELLRKKGADLLWCNARTSASGYYKKLGFSEQGEVYDIPPVGPHILMYKKLT
modifications: 9_4H8
notes: GAT polypeptide
B10: SEQ ID NO: 430: GAT polypeptide (protein)
chain: MIEVKPINAEDTYEIRHRILRPNQPLEACKYETDLLGGTLHLGGYYRGKLVSIASFHQAEHPELEGQKQYQLRGMATLEGYRGQKAGSTLIRHAEELLRKKGADLLWCNARTSASGYYKKLGFSEQGGVYDIPPVGPHILMYKKLT
modifications: 9_23A10
notes: GAT polypeptide
B11: SEQ ID NO: 431: GAT polypeptide (protein)
chain: MIEVKPINAEDTYEIRHRILRPNQPLEACKYETDLLRGAFHLGGYYRGKLISIASFHQAEHSELEGQKQYQLRGMATLEGYREQKAGSTLIRHAEALLRKKGADLLWCNARTSASGYYKKLGFSEQGEVYDIPPTGPHILMYKKLT
modifications: 9_24F6
notes: GAT polypeptide
B12: SEQ ID NO: 427: GAT polypeptide (protein)
chain: MIEVKPINAEDTYEIRHRVLRPNQPLEACMYETDLLGGTFHLGGYYRGELVSIASFHQAEHPELEGQKQYQLRGMATLEGYREQKAGSTLIRHAEELLRKKGADLLWCNARTSASGYYKKLGFSEQGGVYDIPPVGPHILMYKKLT
modifications: 9_20F12
notes: GAT polypeptide
B13: SEQ ID NO: 435: GAT polypeptide (protein)
chain: MIEVKPINAEDAYEIRHRILRPNQPLEACKYETDLLGSTFHLGGYYRGKLISIASFHQAEHPELEGQKQYQLRGMATLEEYREQKAGSTLIRHAEELLRKKGADLLWCNARTSASGYYKKLGFSEQGEVYDIPPVGPHILMYKKLT
modifications: 9_9H7
notes: GAT polypeptide
B14: SEQ ID NO: 436: GAT polypeptide (protein)
chain: MIEVKPINAEDTYEIRHRILRPNQPLEACMYETDLLGGTFHLGGYYQGKLISIASFHNAEHSELEGQKQYQLRGMATLEGYREQKAGSTLIRHAEELLRKKGADLLWCNARTSVSGYYEKLGFSEQGEVYDIPPVGPHILMYKKLA
modifications: 9C6
notes: GAT polypeptide
B15: SEQ ID NO: 429: GAT polypeptide (protein)
chain: MIEVKPINAEDTYEIRHRILRPNQPLEACKYETDLLGGTFHLGGYYRGKLVSIASFHQAEHPELEGQKQYQLRGMATLEGYREQKAGSTLIRHAEELLRKKGADLLWCNARTSASGYYKKLGFSEQGEVYDLPPTGPHILMYKKLT
modifications: 9_22B1
notes: GAT polypeptide
B16: SEQ ID NO: 426: GAT polypeptide (protein)
chain: MIEVKPINAEDTYEIRHRILRPNQPLEACMYETDLLGGTFHLGGYYRGKLISIASFHQAEHPELVGQKQYQLRGMATLEGYREQKAGSTLIRHAEELLRKKGADLLWCNARTSASGYYKKLGFSEQGEVYDIPPVGPHILMYKKLT
modifications: 9_18H2
notes: GAT polypeptide
B17: SEQ ID NO: 437: GAT polypeptide (protein)
chain: MIEVKPINAEDTYEIRHRILRPNQPLEACKYETDLLGGTFHLGGYYRGKLISIASFHKAEHSELEGEEQYQLRGMATLEGYREQKAGSTLIRHAEELLRKKGADLLWCNARTSVSGYYKKLGFSEQGEVYDIPPIGPHILMYKKLT
modifications: 9H11
notes: GAT polypeptide
B18: SEQ ID NO: 438: GAT polypeptide (protein)
chain: MIEVKPINAEDTYELRHKILRPNQPIEACMYESDLLRGAFHLGGFYRGKLISIASFHQAEHSDLEGQKQYQLRGMATLEGYRDQKAGSTLIKHAEEILRKRGADMLWCNARTTASGYYKKLGFSEQGEIFDTPPVGPHILMYKRLT
modifications: 0_4B10
notes: GAT polypeptide
B19: SEQ ID NO: 439: GAT polypeptide (protein)
chain: MIEVKPINAEDTYELRHKILRPNQPIEACMYESDLLRGAFHLGGFYGGKLISIASFHQAEHSDLEGQKQYQLRGMATLEGYRDQKAGSTLIKHAEQLLRKRGADMLWCNARTSASGYYKKLGFSEQGEVFETPPVGPHILMYKKIT
modifications: 0_5B11
notes: GAT polypeptide
B20: SEQ ID NO: 442: GAT polypeptide (protein)
chain: MIEVKPINAEDTYELRHKILRPNQPIEACMYESDLLRGAFHLGGFYRGKLISIASFHQAEHSDLQGQKQYQLRGMATLEGYRDQKAGSSLIRHAEQILRKRGADLLWCNARTSASGYYKKLGFSEQGEIFDTPPVGPHILMYKRLT
modifications: 0_5B8
notes: GAT polypeptide
B21: SEQ ID NO: 440: GAT polypeptide (protein)
chain: MLEVKPINAEDTYELRHRILRPNQPIEACMYETDLLRGAFHLGGFYRGKLISIASFHQAEHSELQGQKQYQLRGMATLEGYRDQKAGSSLIKHAEQLLRKRGADLLWCNARTSASGYYKKLGFSEQGEVFDTPPVGPHILMYKRIT
modifications: 0_5B3
notes: GAT polypeptide
B22: SEQ ID NO: 441: GAT polypeptide (protein)
chain: MLEVKLINAEDTYELRHRILRPNQPLEACMYETDLLRGAFHLGGFYRGKLISIASFHQAEHSDLEGQKQYQLRGMATLEGFRDQKAGSSLIKHAEEILRKRGANLLWCNARTSASGYYKKLGFSEQGEVFDTPPVGPHILMYKRIT
modifications: 0_5B4
notes: GAT polypeptide
B23: SEQ ID NO: 443: GAT polypeptide (protein)
chain: MIEVKPINAEDTYELRHKILRPNQPLEACMYETDLLRGAFHLGGFYRGKLISIASFHQAEHSGLQGQKQYQLRGMATLEGYREQKAGSSIIKHAEEILRKKGADLLWCNARTSASGYYKKLGFSEQGEIFDTPPVGPHILMYKRIT
modifications: 0_5C4
notes: GAT polypeptide

Experiment: Standard protocol for determination of kcat and KM (continuous spectrophotometric assay, Acetyl CoA hydrolysis at 235 nm)
Assay type: biochemical
Details: purified protein, about 23° C., 0.2 mM acetyl CoA; for Kcat: 20 mM HEPES pH 6.8, 10% ethylene glycol; for Km: pH 6.8, glyphosate 0.125 to 10 mM
Method in brief: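 KM from initial rates over 0.125–10 mM glyphosate, fitted by Lineweaver-Burke transformation of Michaelis-Menten; kcat/KM computed as kcat divided by KM. Continuous spectrophotometric read of acetyl-CoA hydrolysis at 235 nm.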

| Molecule | Kcat [s⁻¹] | Km [µM] |
| --- | --- | --- |
| B1 | 0.46 | 1200 |
| B2 | 1.788 | 1100 |
| B3 | 1.688 | 1500 |
| B4 | 1.14 | 1900 |
| B5 | 1.27 | 1900 |
| B6 | 0.4 | 1200 |
| B7 | 0.477 | 1200 |
| B8 | 1.25 | 1700 |
| B9 | 0.785 | 600 |
| B10 | 0.35 | 1000 |
| B11 | 0.875 | 900 |
| B12 | 0.63 | 1000 |
| B13 | 0.467 | 700 |
| B14 | 0.217 | 2500 |
| B15 | 0.835 | 1400 |
| B16 | 0.417 | 1100 |
| B17 | 0.067 | 2300 |
| B18 | 3.17 | 680 |
| B19 | 3.65 | 540 |
| B20 | 2.38 | 270 |
| B21 | 2.38 | 390 |
| B22 | 3 | 600 |
| B23 | 3.42 | 670 |
